# Results published in patent US6649168B2, “Pharmaceutical compositions comprising TGF-beta” (Novartis AG, priority 1999, dated 2003).
# Assays:
# [1] = Fluorescence adsorption study (intrinsic tryptophan fluorescence) of binding to cuvette walls; format: physicochemical; settings: solution of TGF-β (1 μg/ml) in water, 25° C.
# Excerpt: We have also developed an analytical method suitable for determining suitable concentrations of TGF-β, especially TGF-β3. When adsorption of a fluorescent molecule (protein) occurs to the cuvette walls the concentration of the molecule in the solution decreases. This change in concentration is monitored by changes (reduction) in the fluorescence intensity. With optimized slits in the excitation and emission monochromators the excitation beam is focused in a small region in the middle of the cuvette and the emission is collected also preferentially from the same region. […] In these conditions the fluorescence intensity is proportional to the concentration of the molecules in the aqueous solution (monitored in the middle of the cuvette). If binding occurs a decrease in the fluorescence intensity is observed. For TGF-β the intrinsic tryptophan fluorescence is used in the adsorption studies. To characterize an adsorption process the percentage from the total TGF-β in the cuvette which bound to the walls in a given time interval, e.g. 25 minutes, is measured. Fluorescence measurements are performed with a Spex Fluorolog® or a Spex Fluoromax® spectrophotometers with a stirred attachment in the cell holder at 25° C. Tryptophan fluorescence is excited at 280 nm and emission monitored at 340 nm. […]
# [2] = Chemical stability of lyophilized formulation, by-products by capillary zone electrophoresis; format: physicochemical; settings: in the absence of CaCl2
# Method: The chemical stability of lyophilized formulation in vials containing TGF-β3, 5.881 mg of CaCl2 and 25 mg of mannitol have been tested. The vials are solubilized to obtain TGF-β3 solutions of 0.1 mg/ml and 0.25 mg/ml. TGF-β3 by-products (related substances) are determined by capillary zone electrophoresis. […] There is no increase in the TGF-β3 by-products after 6 month incubation at 40° C. In comparison, in the absence of CaCl2 the chemical degradation is substantial.
# [3] = Aggregation by 90°-light scattering; format: physicochemical; settings: 10 mM calcium chloride or 10 mM calcium phosphate, and 20% isopropanol or ethanol; increasing TGF-β3 concentration up to 60 μg/ml
# Method: Aggregation of TGF-β3 in different aqueous conditions is studied using 90°-lightscattering. Using the same wavelength for excitation and emission, e.g. excitation and emission wavelength is 560 nm, a Spectrofluorimeter is used to detect aggregation events by measuring the 90°-light scatter. In this method a small aliquot of TGF-β3 stock solution is added in the fluorescence cuvette. If aggregation takes place an increase in the 90°-light scatter intensity is observed.
# A composition comprising 10 mM calcium chloride or 10 mM calcium phosphate, and 20% isopropanol or ethanol is prepared.
# vascularization = experiment: Mouse subcutaneous model (induction of angiogenesis); format: in vivo
# Excerpt: (§1) The in vivo performance of the pharmaceutical compositions of the present invention may be tested on horses (wound healing), pigs (oral mucositis inhibition), rabbits e.g. with the rabbit cranial defect model (induction of repairing of bone defects), and femal mice (induction of angiogenesis).
# cranial bone defect = experiment: Rabbit cranial defect model, bony filling by quantitative radiography; format: in vivo
# Method: as §1
# Bone disks removed for creation of the defect served as controls for the extent of bone regeneration. After an eight week healing period the bony filling of the defects was determined by quantitative radiography. The total defect area corresponded to 113320.2 pixels and was taken as 100% for further calculations. Accordingly, complete regeneration corresponded to a value of 11.3×10^4 pixels.
substance,measurement,setting,value
TGF-β,"binding to plastic, quartz and siliconised quartz cuvettes",[1],bind strongly
"TGF-β3: 25 kD homodimeric, disulfide-linked protein composed of two 112 amino acid polypeptides",chemical degradation,[2],substantial
same,aggregation (90°-light scatter intensity),[3],No aggregation
same,vascularization (in words),vascularization,strong vascularization
same,bone formation (in words),cranial bone defect,strong bone formation
